Several values for one entry are separate records, joined by “and”; a condition that tells them apart may be missing. Equal entries are not always repeated.
How the values were obtained:
[1] = target: T1, recombinant human BCMA Fc(kih) (human, UniProt Q02223 4-53, site-specifically biotinylated at the C-terminal avi-tag ; Biotin on the avi-tag at the C-terminus of the Fc knob chain (tag and Fc left out).); test: SPR (Biacore T200), IgG captured via anti-human Fab, BCMA Fc(kih) as analyte, 1:1 Langmuir fit
T1 construct: Knobs-into-holes heterodimer carrying one BCMA ectodomain; also called huBCMA Fc(kih); huBCMA; not shown: human IgG1 hinge-Fc knob chain with C-terminal avi-tag, and the unfused Fc hole chain
T1 chain: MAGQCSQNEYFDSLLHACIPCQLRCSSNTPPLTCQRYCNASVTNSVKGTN
Method: (§1) Assessment of binding of anti-BCMA antibodies to recombinant BCMA by surface plasmon resonance (SPR) as follow. […] The avidity of the interaction between anti-BCMA antibodies and recombinant BCMA Fc(kih) (human and cynomolgus) was determined. Biotinylated recombinant human and cynomolgus BCMA Fc(kih) were directly coupled on a SA chip following instructions (Biacore, Freiburg/Germany). The immobilization level ranged from 200 to 700 RU. […] The dissociation was monitored for 180 seconds. Bulk refractive index differences were corrected for by subtracting the response obtained on the reference flow cell. Here, the anti-BCMA antibodies were flown over an empty surface previously activated and deactivated as described in the standard amine coupling kit. Apparent kinetic constants were derived using the Biacore T200 Evaluation Software (vAA, Biacore AB, Uppsala/Sweden), to fit rate equations for 1:1 Langmuir binding by numerical integration, despite the bivalency of the interaction for comparison purposes. The affinity of the interaction between anti-BCMA antibodies and recombinant human BCMA Fc(kih) was also determined. Anti-human Fab antibody (GE Healthcare) was directly coupled on a CMS chip at pH 5.0 using the standard amine coupling kit (Biacore, Freiburg/Germany). The immobilization level was about 6500 RU. […] The dissociation was monitored for 120 seconds. Bulk refractive index differences were corrected for by subtracting the response obtained on reference flow cell. […] Kinetic constants were derived using the Biacore T100 Evaluation Software (vAA, Biacore AB, Uppsala/Sweden), to fit rate equations for 1:1 Langmuir binding by numerical integration (Table 4).

[2] = target: T2, recombinant cynomolgus BCMA Fc(kih) (cynomolgus, UniProt A0A2K5UD97 4-51); test: as above
T2 sequence (A0A2K5UD97 entry or part of it): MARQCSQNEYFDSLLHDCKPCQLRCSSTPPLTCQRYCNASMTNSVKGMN
Method: as §1

[3] = target: T2, recombinant cynomolgus BCMA Fc(kih); test: ratio of SPR KD values (KD cynomolgus BCMA / KD human BCMA), reference human BCMA Fc(kih)
Method: The avidity of the interaction between anti-BCMA antibodies and recombinant BCMA Fc(kih) (human and cynomolgus) was determined. Biotinylated recombinant human and cynomolgus BCMA Fc(kih) were directly coupled on a SA chip following instructions (Biacore, Freiburg/Germany). The immobilization level ranged from 200 to 700 RU. […] The dissociation was monitored for 180 seconds. Bulk refractive index differences were corrected for by subtracting the response obtained on the reference flow cell. Here, the anti-BCMA antibodies were flown over an empty surface previously activated and deactivated as described in the standard amine coupling kit. Apparent kinetic constants were derived using the Biacore T200 Evaluation Software (vAA, Biacore AB, Uppsala/Sweden), to fit rate equations for 1:1 Langmuir binding by numerical integration, despite the bivalency of the interaction for comparison purposes. The affinity of the interaction between anti-BCMA antibodies and recombinant human BCMA Fc(kih) was also determined. Anti-human Fab antibody (GE Healthcare) was directly coupled on a CMS chip at pH 5.0 using the standard amine coupling kit (Biacore, Freiburg/Germany). The immobilization level was about 6500 RU. […] The dissociation was monitored for 120 seconds. Bulk refractive index differences were corrected for by subtracting the response obtained on reference flow cell. […] Kinetic constants were derived using the Biacore T100 Evaluation Software (vAA, Biacore AB, Uppsala/Sweden), to fit rate equations for 1:1 Langmuir binding by numerical integration (Table 4).
Based on the affinity values described in Example 2, the affinity of anti-BCMA antibodies to human BCMA vs. cynomolgus BCMA were compared and cyno/hu affinity ratio (gap) values were calculated (Table 5).

[4] = target: T1, recombinant human BCMA Fc(kih); test: SPR one-shot kinetics (ProteOn XPR36), IgG captured from HEK293 supernatant via anti-human F(ab)2, BCMA as analyte
Method: (§2) All experiments were performed at 25° C. using PBST as running buffer (10 mM PBS, pH 7.4 and 0.005% (v/v) Tween®20). A ProteOn XPR36 biosensor equipped with GLC and GLM sensor chips and coupling reagents (10 mM sodium acetate, pH 4.5, sulfo-N-hydroxysuccinimide, 1-ethyl-3-(3-dimethylaminopropyl)-carbodiimide hydrochloride [EDC] and ethanolamine) was purchased from BioRad Inc. (Hercules, Calif.). Immobilizations were performed at 30 μl/min. on a GLM chip. pAb (goat) anti hu IgG, F(ab)2 specific Ab (Jackson) was coupled in vertical direction using a standard amine-coupling procedure: all six ligand channels were activated for 5 min with a mixture of EDC (200 mM) and sulfo-NHS (50 mM). Immediately after the surfaces were activated, pAb (goat) anti hu IgG, F(ab)2 specific antibody (50 μg/ml, 10 mM sodium acetate, pH 5) was injected across all six channels for 5 min. Finally, channels were blocked with a 5 min injection of 1 M ethanolamine-HCl (pH 8.5). […] One-shot kinetic measurements were performed by injection of a dilution series of human, cyno and mouse BCMA (50, 10, 2, 0.4, 0.08, 0 nM, 50 μl/min) for 3 min along the vertical channels. Dissociation was monitored for 5 min Kinetic data were analyzed in ProteOn Manager v. 2.1. Processing of the reaction spot data involved applying an interspot-reference and a double-reference step using an inline buffer blank (Myszka, 1999). The processed data from replicate one-shot injections were fit to a simple 1:1 Langmuir binding model without mass transport (O'Shannessy et al., 1993).

[5] = target: T2, recombinant cynomolgus BCMA Fc(kih); test: as above
Method: as §2

[6] = target: T3, murine BCMA extracellular domain, monomeric Fc-fusion (murine, UniProt O88472 1-49, site-specifically biotinylated at the C-terminal avi-tag); test: as above
T3 construct: extracellular domain; also called muBCMA; mouse BCMA; not shown: hinge and Fc of human IgG1, knob chain; avi-tag; unfused human IgG1 Fc portion (hole chain)
T3 sequence (O88472 whole entry, the tested form may be a part): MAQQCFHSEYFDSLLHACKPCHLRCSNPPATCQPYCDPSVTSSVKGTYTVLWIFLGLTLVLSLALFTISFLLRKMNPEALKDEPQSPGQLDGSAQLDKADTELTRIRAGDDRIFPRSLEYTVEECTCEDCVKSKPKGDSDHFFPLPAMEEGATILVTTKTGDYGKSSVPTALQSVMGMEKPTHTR
Method: as §2

human BCMA on cells = target: T4, human BCMA on cells (human, UniProt Q02223 1-184); test: flow cytometry on HEK-huBCMA cells, PE anti-human Fc detection
T4 construct: whole, on cells; also called huBCMA on HEK cells; HEK-huBCMA cells
T4 sequence (looked up): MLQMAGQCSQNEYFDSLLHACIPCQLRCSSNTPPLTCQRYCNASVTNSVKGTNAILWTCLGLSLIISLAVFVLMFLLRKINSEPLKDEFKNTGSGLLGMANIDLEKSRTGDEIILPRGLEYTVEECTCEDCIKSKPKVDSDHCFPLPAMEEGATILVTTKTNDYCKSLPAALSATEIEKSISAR

B1: Mab 42 IgG (antibody, V domains shown)
VH: EVQLLESGGGLVQPGGSLRLSCAASGFTFSDNAMGWVRQAPGKGLEWVSAISGPGSSTYYADSVKGRFTISRDNSKNTLYLQMNSLRAEDTAVYYCAKVLGWFDYWGQGTLVTVSS
VL: EIVLTQSPGTLSLSPGERATLSCRASQSVSDEYLSWYQQKPGQAPRLLIHSASTRATGIPDRFSGSGSGTDFTLAISRLEPEDFAVYYCQQYGYPPDFTFGQGTKVEIK
notes: also called antibody 42; clone 42
Question: For B1, which Kd [1] is on record?
Answer: 0.371 nM

Question: What about the koff [1] of the same binder?
Answer: 0.000298 s⁻¹

Question: What about the kon [1] of the same binder?
Answer: 803000 M⁻¹ s⁻¹

Question: And the Kd [2]?
Answer: 0.641 nM

Question: And the koff [2]?
Answer: 0.000453 s⁻¹

Question: What about the kon [2] of the same binder?
Answer: 707000 M⁻¹ s⁻¹

Question: And the Affinity cyno/hu gap [3]?
Answer: 1.7 fold

Question: What about the Kd [4] of the same binder?
Answer: 0.23 nM

Question: And the Kd [5]?
Answer: 0.39 nM

Question: What about the Kd [6] of the same binder?
Answer: 2.5 nM

Question: What about the EC50 (human BCMA on cells) of the same binder?
Answer: 2.1 nM and 0.3 µg/mL

B2: Mab 27 IgG (antibody, V domains shown)
VH: EVQLLESGGGLVQPGGSLRLSCAASGFTFSSAPMGWVRQAPGKGLEWVSAISYIGHTYYADSVKGRFTISRDNSKNTLYLQMNSLRAEDTAVYYCAKVLGWFDYWGQGTLVTVSS
VL: EIVLTQSPGTLSLSPGERATLSCRASQSVSEYYLAWYQQKPGQAPRLLIEHASTRATGIPDRFSGSGSGTDFTLTISRLEPEDFAVYYCQQYGYPPDFTFGQGTKVEIK
Question: For B2, which Kd [1] is on record?
Answer: 0.165 nM

Question: And the koff [1]?
Answer: 5.93e-05 s⁻¹

Question: What about the kon [1] of the same binder?
Answer: 359000 M⁻¹ s⁻¹

Question: And the Kd [2]?
Answer: 2.11 nM

Question: And the koff [2]?
Answer: 0.000455 s⁻¹

Question: And the kon [2]?
Answer: 216000 M⁻¹ s⁻¹

Question: And the Affinity cyno/hu gap [3]?
Answer: 12.7 fold

Question: And the Kd [4]?
Answer: 0.00039 nM

Question: What about the Kd [5] of the same binder?
Answer: 0.1 nM

Question: And the Kd [6]?
Answer: 0.97 nM

Question: And the EC50 (human BCMA on cells)?
Answer: 10.6 nM and 1.52 µg/mL

Source: US20220002427A1 (ENGMAB SARL, published 2022)
